Here are results for one substance from article PMC10469194.

In this test the target is REGN10987-based FabH3 heavy chain (VH - GS-G4 linker - IgG1 CH3 K392D, K409D). Kind of test: pull-down; co-purification from the soluble E. coli lysate by cobalt IMAC on the His6 tag of the heavy chain, native conditions; SDS-PAGE.
Sequence of REGN10987-based FabH3 heavy chain (VH - GS-G4 linker - IgG1 CH3 K392D, K409D) (heavy, as listed by the source): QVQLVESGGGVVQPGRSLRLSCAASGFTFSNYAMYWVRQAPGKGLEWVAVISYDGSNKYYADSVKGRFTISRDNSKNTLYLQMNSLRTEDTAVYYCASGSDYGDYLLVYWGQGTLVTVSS

As for “REGN10987-based FabH3 light chain (VL - GS-G4 linker - IgG1 CH3 E356K, D399K)”, the stoichiometry N – broadly, the number of molecules, sites or subunits per partner or assembly – amounted to 1.
